Experimental data as given in patent US20020150888A1 (published 2002).
Like-named read-outs stand apart in the source and are kept apart here.

B1: RANTES (ligand, UniProt P13501 24-91, looked up)
chain: SPYSSDTTPCCFAYIARPLPRAHIKEYFYTSGKCSNPAVVFVTRKNRQVCANPEKKWVREYINSLEMS
B2: MIP-1β (ligand, UniProt P13236 24-92, looked up)
chain: APMGSDPPTACCFSYTARKLPRNFVVDYYETSSLCSQPAVVFQTKRSKQVCADPSESWVQEYVYDLELN
notes: also called MIP-1p
B3: FLAG-tagged 88C receptor (receptor)
chain: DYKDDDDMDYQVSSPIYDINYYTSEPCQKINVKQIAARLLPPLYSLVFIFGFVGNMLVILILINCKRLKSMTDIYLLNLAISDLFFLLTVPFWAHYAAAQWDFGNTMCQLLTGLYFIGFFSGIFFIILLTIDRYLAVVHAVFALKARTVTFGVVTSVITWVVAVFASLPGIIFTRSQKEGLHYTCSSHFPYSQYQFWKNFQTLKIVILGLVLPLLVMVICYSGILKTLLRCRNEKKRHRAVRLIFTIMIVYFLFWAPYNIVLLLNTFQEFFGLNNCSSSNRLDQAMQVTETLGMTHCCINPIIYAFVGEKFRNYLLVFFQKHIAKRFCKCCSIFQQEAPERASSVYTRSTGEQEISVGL

Key:
[1] = biological target: FLAG-tagged 88C receptor (human); assay: cell-based or functional assay
[2] = biological target: FLAG-tagged 88C receptor (human); assay: competition of unlabelled ligand with 1.5 nM 125I-MIP-1β on HEK-293 cells transfected with FLAG-tagged 88C
[3] = biological target: B3; assay: cell-based or functional assay
[4] = biological target: B3; assay: competition of unlabelled ligand with 1.5 nM 125I-MIP-1β on HEK-293 cells transfected with FLAG-tagged 88C
[5] = biological target: B2; assay: equilibrium binding of 125I-MIP-1β to HEK-293 cells transfected with FLAG-tagged 88C, Scatchard analysis

## MIP-1α (from UniProt P10147 24-92) (ligand)
[1]
  EC50 of inositol phosphate formation (phospholipase C assay, COS-7 cells co-transfected with Gqi5): 22 nM
[2]
  IC50: 7.4 nM

## B1
[3]
  EC50 of inositol phosphate formation (phospholipase C assay, COS-7 cells co-transfected with Gqi5): 1 nM
[4]
  IC50: 6.9 nM

## B2
[3]
  EC50 of inositol phosphate formation (phospholipase C assay, COS-7 cells co-transfected with Gqi5): 6 nM
[4]
  IC50: 7.4 nM

## B3
[5]
  Kd: 1.6 nM
